Reference: patent US20170267750A1, “Method of Treating Ovarian and Renal Cancer Using Antibodies Against T Cell Immunoglobulin Domain and Mucin Domain 1 (TIM-1) Antigen” (Celldex Therapeutics, Inc., priority 2005, published 2017)
Marks after values point to notes of the source that are not given here.

Legend:
[1] = molecular target: T1, TIM-1 antigen (Homo sapiens, UniProt Q96D42, DEL158-162/L179P); experiment: Epitope binning (antigen binding competition, Luminex)
T1 construct: V5; His; made in house; host or cells: baculovirus expression system (pMelV5His vector / pBlueBac)
T1 sequence (Q96D42 with tags, fused parts or gaps DEL158-162/L179P): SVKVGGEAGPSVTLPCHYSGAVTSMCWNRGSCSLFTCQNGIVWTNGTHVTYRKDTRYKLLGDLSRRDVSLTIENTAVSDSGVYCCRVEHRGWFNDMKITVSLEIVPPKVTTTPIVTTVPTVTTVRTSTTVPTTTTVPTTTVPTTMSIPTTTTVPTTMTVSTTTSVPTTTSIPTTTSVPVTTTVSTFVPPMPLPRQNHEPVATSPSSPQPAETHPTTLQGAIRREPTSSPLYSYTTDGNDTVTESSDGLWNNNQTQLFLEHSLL
Description: Certain antibodies, described herein were “binned” in accordance with the protocol described in U.S. Patent Application Publication No. 20030157730, published on Aug. 21, 2003, entitled “Antibody Categorization Based on Binding Characteristics.”
MxhIgG conjugated beads were prepared for coupling to primary antibody. The volume of supernatant needed was calculated using the following formula: (n+10)×50 μL (where n=total number of samples on plate). Where the concentration was known, 0.5 μg/mL was used. Bead stock was gently vortexed, then diluted in supernatant to a concentration of 2500 of each bead per well or 0.5×10^5/mL and incubated on a shaker in the dark at room temperature overnight, or 2 hours if at a known concentration of 0.5 μg/mL. Following aspiration, 50 μL of each bead was added to each well of a filter plate, then washed once by adding 100 μL/well wash buffer and aspirating. Antigen and controls were added to the filter plate 50 μL/well then covered and allowed to incubate in the dark for 1 hour on shaker. Following a wash step, a secondary unknown antibody was added at 50 μL/well using the same dilution (or concentration if known) as used for the primary antibody. The plates were then incubated in the dark for 2 hours at room temperature on shaker followed by a wash step. Next, 50 μL/well biotinylated mxhIgG diluted 1:500 was added and allowed to incubate in the dark for 1 hour on shaker at room temperature. Following a wash step, 50 μL/well Streptavidin-PE was added at 1:1000 and allowed to incubate in the dark for 15 minutes on shaker at room temperature. Following a wash step, each well was resuspended in 80 μL blocking buffer and read using a Luminex system.

[2] = molecular target: T2, TIM-1 protein on human CD4+ Th2 cells (Homo sapiens, UniProt Q96D42); experiment: FACS analysis of expression of TIM-1 protein on human CD4+ Th2 cells; type: binding
T2 construct: a major fraction of polarized human Th2 and Th1 cells do express TIM-1; endogenous in cells; host or cells: primary human CD4+ T cells from blood
T2 sequence (Q96D42 21-364): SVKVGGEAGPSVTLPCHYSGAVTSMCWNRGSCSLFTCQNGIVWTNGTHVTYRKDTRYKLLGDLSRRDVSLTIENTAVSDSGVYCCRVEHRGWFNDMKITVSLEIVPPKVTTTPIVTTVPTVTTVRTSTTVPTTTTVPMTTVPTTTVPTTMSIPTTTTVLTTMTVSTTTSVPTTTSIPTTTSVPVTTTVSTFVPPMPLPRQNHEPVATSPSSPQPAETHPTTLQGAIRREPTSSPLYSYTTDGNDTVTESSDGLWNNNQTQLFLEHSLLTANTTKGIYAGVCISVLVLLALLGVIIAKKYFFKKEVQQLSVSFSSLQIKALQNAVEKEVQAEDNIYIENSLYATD
Description: Mononuclear cells were isolated from human blood diluted 1:1 in PBS, by spinning over Ficoll for 20 minutes. The mononuclear cells were washed twice at 1000 rpm with PBS-Mg and Ca and re-suspended in Miltenyi buffer (Miltenyi Biotec Inc., Auburn, Calif.); PBS, 0.5% BSA, 5 mM EDTA at approximately 10^8 cells/mL. 20 μL of CD4 Miltenyi beads were added per 107 cells and incubated for 15 minutes on ice. Cells were washed with a 10-fold excess volume of Miltenyi buffer. A positive selection column (type VS+) (Miltenyi Biotec Inc., Auburn, Calif.) was washed with 3 mL of Miltenyi buffer. The pelleted cells were re-suspended at 10^8 cells per mL of Miltenyi buffer and applied to the washed VS column. The column was then washed three times with 3 mL of Miltenyi buffer. Following this, the VS column was removed from the magnetic field and CD4+ cells were eluted from the column with 5 mL of Miltenyi buffer. […]
FACS analysis was performed to determine the expression of TIM-1 protein as detected with five anti-TIM-1 monoclonal antibodies (2.59.2, 1.29, 2.70.2, 2.56.2, 2.45.1) on human and mouse resting CD4+ T cells, as well as human activated and human polarized CD4+ T cells.
Data is reported as the geometric mean of the fluorescence intensity.

[3] = system: Th1 cells; experiment: Cytokine assay (ELISA of culture supernatants), CD4+ Th1 cells; type: cell-based, human; conditions: 5 μg/mL mAb
Description: (§1) IL-4, IL-5, IL-10, IL-13, and IFNγ production levels by activated Th1 and Th2 cell were measured in culture supernatants treated with anti-TIM-1 antibodies using standard ELISA protocols. Cytokine production by Th1 or Th2 cells treated with anti-TIM-1 antibodies was compared to Th1 or Th2 cells treated with the control PK16.3 antibody. In addition, the following samples were run in parallel as internal controls: i) anti-CD3 treated Th1 or Th2 cells, where no cytokine production is expected because of the absence of co-stimulation, ii) anti-CD3/anti-CD28 stimulated Th1 or Th2 cells, expected to show detectable cytokine production, and iii) untreated Th1 or Th2 cells. CD4+ T cells were isolated as described in the Example above. Isolated CD4+ lymphocytes were then spun down and re-suspended in DMEM 5% FCS plus additives (non-essential amino acids, sodium pyruvate, mercaptoethanol, glutamine, penicillin, and streptomycin) at 10^6 cells/mL. Falcon 6-well non-tissue culture treated plates were pre-coated overnight with anti-CD3 (2 μg/mL) and anti-CD28 (10 μg/mL) (600 μL total in Dulbecco's PBS) overnight at 4° C. The plates were washed with PBS and CD4+ lymphocytes were suspended at 500,000 cells/mL in Th2 medium: DMEM+10% FCS plus supplements and IL-2 5 ng/mL, IL-4 5 ng/mL, anti-IFN gamma 5 μg/mL and cells were stimulated 4-6 days at 37° C. and 5% CO2 in the presence of 5 μg/mL of mAb recognizing the TIM-1 protein or isotype matched negative control mAb PK16.3.
(§2) In another set of experiments, CD4+ lymphocytes were suspended at 500,000 cells/mL in Th1 medium: DMEM+10% FCS plus supplements and IL-2 5 ng/mL, IL12 5 ng/mL, anti-IL-4 5 μg/mL and stimulated 4-6 days 37° C. temp and 5% CO2 in the presence of 5 μg/mL TIM-1 or isotype matched control mAb PK16.3. Cells were washed two times in DMEM and resuspended in DMEM, 10% FCS plus supplements and 2 ng/mL IL-2 (500,000 cells/mL) in the presence of 5 μg/mL TIM-1 mAb or control PK16.3 mAb and cultured (rested) for 4-6 days at 37° C. and 5% CO2. The process of activation and resting was repeated at least once more as described above with the addition of anti-CD95L (anti-FAS ligand) to prevent FAS-mediated apoptosis of cells. Falcon 96-well non-tissue culture treated plates pre-coated overnight with anti-CD3 mAb at 500 ng/mL and costimulatory molecule B7H2 (B7 homolog 2) 5 μg/mL were washed and 100 μL of TIM-1 mAb treated Th1 or Th2 (200,000 cells) added per well. After 3 days of culture, the supernatants were removed and IL-4, IL-5, IL-10, IL-13, and IFNγ […]levels were determined by ELISA (Pharmingen, San Diego, Calif. or R&D Systems, Minneapolis, Minn.).

[4] = system: BT549 cells; experiment: FACS analysis on antigen negative BT549 breast cancer cells (control); type: binding, human; conditions: normalized to isotype control (pK16)
[5] = system: Th2 cells; experiment: Cytokine assay (ELISA of culture supernatants), CD4+ Th2 cells; type: cell-based, human; conditions: for IL-5 production, percent of cytokine production detected using the control PK16.3 mAb / IL-10 production, percent of cytokine production detected using the control PK16.3 mAb / IL-13 production, percent of cytokine production detected using the control PK16.3 mAb / IL-4 production, percent of cytokine production detected using the control PK16.3 mAb: Th2
Description: as §1, §2
Each experiment used purified CD4+ cells isolated from whole blood samples from two independent donors. Cytokine production is reported as the percent of cytokine production detected using the control PK16.3 mAb. The anti-TIM-1 mAb used in each experiment is specified along the bottom row.

[6] = TH1, Donor 12 + 17, control PK16.3 mAb
[7] = 5 μg/mL mAb, compared to control PK16.3 mAb
[8] = TH2, Donor 12 + 17, control PK16.3 mAb, 5 μg/mL mAb

B1: mAb 1.29: fully human IgG2 kappa anti-TIM-1 monoclonal antibody; heavy chain SEQ ID NO: 2, light chain SEQ ID NO: 4 (antibody, listed as Homo Sapiens, V domains shown)
VH: QVQLQESGPGLVKPSETLSLTCTVSGGSVSSGGYYWSWIRQPPGKGLEWIGFIYYTGSTNYNPSLKSRVSISVDTSKNQFSLKLSSVTAADAAVYYCARDYDWSFHFDYWGQGTLVTVSSA
VL: DIQMTQSPSSLSASIGDRVTITCRASQGIRNDLGWYQQKPGKAPKRLIYAASSLQSGVPSRFSGSGSGTEFTLTISSLQPEDFATYYCLQHNSYPLTFGGGTKVEIKR
BIN ([1]; Table 8): 1
Bin ([1]; Table 9): 1
Geometric mean of fluorescence intensity ([2]; Polarized Human CD4+ Th2 Cells): 22.3
Geometric mean of fluorescence intensity ([2]; Resting Human CD4+ T cells): 4.7
IL-10 release from Th1 cells ([3]; compared to control PK16.3 mAb): significantly inhibited
IL-13 release from Th1 cells ([3]; compared to control PK16.3 mAb): significantly inhibited
IL-4 Percentage of Control Antibody [3, 6]: 81.05 Percentage of Control Antibody
IL-5 Percentage of Control Antibody [3, 6]: 94.63 Percentage of Control Antibody
IL-10 Percentage of Control Antibody [3, 6]: 60.77 ** Percentage of Control Antibody
IL-13 Percentage of Control Antibody [3, 6]: 73.95 *** Percentage of Control Antibody
INF γ Percentage of Control Antibody [3, 6]: 93.51 Percentage of Control Antibody
Geo Mean Ratio (relative to negative control) BT549 [4]: 1.2
IL-5 release from Th2 cells [5, 7]: significantly inhibited
IL-10 release from Th2 cells [5, 7]: significantly inhibited
IL-13 release from Th2 cells [5, 7]: significantly inhibited
IL-4 Percentage of Control Antibody [5, 8]: 112.54 Percentage of Control Antibody
IL-5 Percentage of Control Antibody [5, 8]: 80.26 Percentage of Control Antibody
IL-10 Percentage of Control Antibody [5, 8]: 44.45 * Percentage of Control Antibody
IL-13 Percentage of Control Antibody [5, 8]: 48.91 ** Percentage of Control Antibody
INF γ Percentage of Control Antibody [5, 8]: 112.54 Percentage of Control Antibody
IL-5 production, percent of cytokine production detected using the control PK16.3 mAb ([5]; Donor ID 12): 2%
IL-10 production, percent of cytokine production detected using the control PK16.3 mAb ([5]; Donor ID 12): 109%
IL-13 production, percent of cytokine production detected using the control PK16.3 mAb ([5]; Donor ID 12): 91%
IL-4 production, percent of cytokine production detected using the control PK16.3 mAb ([5]; Donor ID 12 + 14): 626%
IL-5 production, percent of cytokine production detected using the control PK16.3 mAb ([5]; Donor ID 12 + 14): 5%
IL-10 production, percent of cytokine production detected using the control PK16.3 mAb ([5]; Donor ID 12 + 14): 83%
IL-4 production, percent of cytokine production detected using the control PK16.3 mAb ([5]; Donor ID 13 + 14): 130%
IL-5 production, percent of cytokine production detected using the control PK16.3 mAb ([5]; Donor ID 13 + 14): 122%
IL-10 production, percent of cytokine production detected using the control PK16.3 mAb ([5]; Donor ID 13 + 14): 19%
IL-13 production, percent of cytokine production detected using the control PK16.3 mAb ([5]; Donor ID 13 + 14): 17%
IL-5 production, percent of cytokine production detected using the control PK16.3 mAb ([5]; Donor ID 14): 67%
IL-10 production, percent of cytokine production detected using the control PK16.3 mAb ([5]; Donor ID 14): 45%
IL-13 production, percent of cytokine production detected using the control PK16.3 mAb ([5]; Donor ID 14): 100%
block of Th2 cytokines across donor groups ([5]; multiple experiments with different donors): reproducibly block one or more of the Th2 cytokines
